Biological target: actin filaments (UniProt P68135)

Chara braunii myosin XI-1 motor domain construct without IQ motifs (domain or fragment)
Vmax of actin-activated ATPase activity, 25 °C (Pi s^−1 head^−1): 410

— article doi:10.1101/2021.05.06.442907
